This assay concerns the target T1, CEP90 (overexpressed) (UniProt Q8WXW3 1-757).
T1 construct: CEP90 (PIBF1), cDNA clone from Dharmacon horizondiscovery; no tag is named; also called overexpressed CEP90; source: U2OS, transfected (lipofectamine 2000), in cells
T1 sequence (looked up): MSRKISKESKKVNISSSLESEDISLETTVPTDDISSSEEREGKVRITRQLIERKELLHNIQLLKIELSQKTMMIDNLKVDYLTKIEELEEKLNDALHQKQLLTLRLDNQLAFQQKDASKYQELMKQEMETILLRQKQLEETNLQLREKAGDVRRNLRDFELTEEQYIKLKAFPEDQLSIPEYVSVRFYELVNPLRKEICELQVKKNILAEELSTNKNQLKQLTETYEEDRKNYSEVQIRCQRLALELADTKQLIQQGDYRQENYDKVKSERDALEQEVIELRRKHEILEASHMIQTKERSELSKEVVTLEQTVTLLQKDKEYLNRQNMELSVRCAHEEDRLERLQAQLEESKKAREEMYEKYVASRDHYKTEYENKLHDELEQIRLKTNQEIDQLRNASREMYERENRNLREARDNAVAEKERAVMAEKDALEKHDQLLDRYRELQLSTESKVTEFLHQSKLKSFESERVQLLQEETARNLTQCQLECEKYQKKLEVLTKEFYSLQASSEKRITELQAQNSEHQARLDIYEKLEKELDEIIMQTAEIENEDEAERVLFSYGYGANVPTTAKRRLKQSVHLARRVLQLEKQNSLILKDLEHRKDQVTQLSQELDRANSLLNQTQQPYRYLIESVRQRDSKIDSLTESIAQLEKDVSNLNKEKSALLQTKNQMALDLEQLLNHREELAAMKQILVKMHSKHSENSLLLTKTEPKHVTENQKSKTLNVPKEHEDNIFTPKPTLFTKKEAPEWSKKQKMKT
As to the kind of experiment: microtubule recruitment (displacement) assay; U2OS cotransfected with MNR-GFP and CEP90, OFD1 mCherry or myc-FOPNL, 24 h; endogenous OFD1, CEP90, CEP83, CEP89, CEP164 stained; percent of cells with the endogenous protein on microtubules, 100 < N < 150 cells per condition, 3 experiments. The note with it: partners not purified.

The values that follow come from paper PMC9484695, “The evolutionary conserved proteins CEP90, FOPNL, and OFD1 recruit centriolar distal appendage proteins to initiate their assembly” (PLoS Biology, 2022).

B1: OFD1 (endogenous) (natural protein, UniProt O75665 1-1012, looked up)
chain: MMAQSNMFTVADVLSQDELRKKLYQTFKDRGILDTLKTQLRNQLIHELMHPVLSGELQPRSISVEGSSLLIGASNSLVADHLQRCGYEYSLSVFFPESGLAKEKVFTMQDLLQLIKINPTSSLYKSLVSGSDKENQKGFLMHFLKELAEYHQAKESCNMETQTSSTFNRDSLAEKLQLIDDQFADAYPQRIKFESLEIKLNEYKREIEEQLRAEMCQKLKFFKDTEIAKIKMEAKKKYEKELTMFQNDFEKACQAKSEALVLREKSTLERIHKHQEIETKEIYAQRQLLLKDMDLLRGREAELKQRVEAFELNQKLQEEKHKSITEALRRQEQNIKSFEETYDRKLKNELLKYQLELKDDYIIRTNRLIEDERKNKEKAVHLQEELIAINSKKEELNQSVNRVKELELELESVKAQSLAITKQNHMLNEKVKEMSDYSLLKEEKLELLAQNKLLKQQLEESRNENLRLLNRLAQPAPELAVFQKELRKAEKAIVVEHEEFESCRQALHKQLQDEIEHSAQLKAQILGYKASVKSLTTQVADLKLQLKQTQTALENEVYCNPKQSVIDRSVNGLINGNVVPCNGEISGDFLNNPFKQENVLARMVASRITNYPTAWVEGSSPDSDLEFVANTKARVKELQQEAERLEKAFRSYHRRVIKNSAKSPLAAKSPPSLHLLEAFKNITSSSPERHIFGEDRVVSEQPQVGTLEERNDVVEALTGSAASRLRGGTSSRRLSSTPLPKAKRSLESEMYLEGLGRSHIASPSPCPDRMPLPSPTESRHSLSIPPVSSPPEQKVGLYRRQTELQDKSEFSDVDKLAFKDNEEFESSFESAGNMPRQLEMGGLSPAGDMSHVDAAAAAVPLSYQHPSVDQKQIEEQKEEEKIREQQVKERRQREERRQSNLQEVLERERRELEKLYQERKMIEESLKIKIKKELEMENELEMSNQEIKDKSAHSENPLEKYMKIIQQEQDQESADKSSKKMVQEGSLVDTLQSSDKVESLTGFSHEELDDSW
notes: OFD1, endogenous human protein; source: endogenous: HEK293 Flp-In cells (BioID); Hela Kyoto lysate (co-IP); U2OS cells (microtubule recruitment assay)
As for B1, the “percent of cells with the endogenous protein on microtubules” value amounted to 63.3%.

B2: CEP83 (endogenous) (natural protein, human (endogenous in U2OS), UniProt Q9Y592 1-701, looked up)
chain: MVVSTFTDMDTFPNNFPPGGDSGLTGSQSEFQKMLIDERLRCEHHKANYQTLKAEHTRLQNEHVKLQNELKHLFNEKQTQQEKLQLLLEELRGELVEKTKDLEEMKLQILTPQKLELLRAQIQQELETPMRERFRNLDEEVEKYRAVYNKLRYEHTFLKSEFEHQKEEYARILDEGKIKYESEIARLEEDKEELRNQLLNVDLTKDSKRVEQLAREKVYLCQKLKGLEAEVAELKAEKENSEAQVENAQRIQVRQLAEMQATVRSLEAEKQSANLRAERLEKELQSSSEQNTFLINKLHKAEREINTLSSKVKELKHSNKLEITDIKLETARAKSELERERNKIQSELDGLQSDNEILKAAVEHHKVLLVEKDRELIRKVQAAKEEGYQKLVVLQDEKLELENRLADLEKMKVEHDVWRQSEKDQYEEKLRASQMAEEITRKELQSVRLKLQQQIVTIENAEKEKNENSDLKQQISSLQIQVTSLAQSENDLLNSNQMLKEMVERLKQECRNFRSQAEKAQLEAEKTLEEKQIQWLEEKHKLHERITDREEKYNQAKEKLQRAAIAQKKRKSLHENKLKRLQEKVEVLEAKKEELETENQVLNRQNVPFEDYTRLQKRLKDIQRRHNEFRSLILVPNMPPTASINPVSFQSSAMVPSMELPFPPHMQEEQHQRELSLLRKRLEELETTQRKQLEELGSSGE
notes: CEP83, endogenous human protein; also called endogenous CEP83; source: endogenous, U2OS cells
For the molecule B2, the “percent of cells with the endogenous protein on microtubules” value was 66.7%.
